Data on three molecules can be found in publication PMC4056191 (Nature, 2012).

Numbering of substitutions follows the chain as printed. Names may count otherwise.

B1: GST–DAXX tower (183–251) E225A (domain or fragment)
chain: GSRRQIQRLEQLLALYVAEIRRLQEKELDLSELDDPDSAYLQAARLKRKLIRLFGRLCELKDCSSLTGR
B2: GST–DAXX tower (183–251) Q206A (domain or fragment)
chain: B1 chain with Q24A, A43E
B3: GST–DAXX tower (183–251) K229A (domain or fragment)
chain: B1 chain with A43E, K47A

In this experiment the target is wild-type histone H3.3–H4 tetramers (human, UniProt P84243 1-136; P62805 1-103). Nature of the experiment: pull-down.
In the case of B1, the binding result was “binds”.

For B2, the binding result was “binds”.

Consider B3, for which the binding result is listed as “binds”.
